Source: patent US20190375824A1 (PANASONIC INTELLECTUAL PROPERTY MANAGEMENT, published 2019)

Molecular target: T1, human serum albumin (human, UniProt P02768 25-609)
T1 construct: Antigen in the SPR assay
Assay: SPR
Protocol: The binding affinity of the provided VHH antibodies to human serum albumin was measured with surface plasmon resonance.

Binder | Kd [nM] | koff [s⁻¹] | kon [M⁻¹ s⁻¹]
VHH antibody of SEQ ID NO: 1 (VHH, Isolated from a phage library; also called WT VHH) VHH: QVQLVESGGGLVQAGDSLRLSCAASGRTFSGYAMGWFRQAPGKEREFVARINWSGTLTYYADSVKGRFTGSRDNAKNTVYLQMNSLKPEDTAVYYCAQRGDSGSNYDPSGYSYWGQGTQVTVSS | 261 | 0.371 | 1.42e+06
VHH antibody in which glycine in position 36, glycine in position 78, and serine in position 116 of SEQ ID NO: 1 were substituted (SEQ ID NO: 10) (VHH, Text says asparagine at IMGT 36; also called G36D/G78A/S116R mutant) VHH: QVQLVESGGGLVQAGDSLRLSCAASGRTFSDYAMGWFRQAPGKEREFVARINWSGTLTYYADSVKGRFTASRDNAKNTVYLQMNSLKPEDTAVYYCAQRGDSGSNYDPSGYRYWGQGTQVTVSS | 365 | 0.411 | 1.13e+06
VHH antibody in which serine in position 116 of SEQ ID NO: 1 was substituted with arginine (SEQ ID NO: 6) (VHH, Expressed in E. coli; also called S116R mutant) VHH: QVQLVESGGGLVQAGDSLRLSCAASGRTFSGYAMGWFRQAPGKEREFVARINWSGTLTYYADSVKGRFTGSRDNAKNTVYLQMNSLKPEDTAVYYCAQRGDSGSNYDPSGYRYWGQGTQVTVSS | 35.6 | 0.591 | 1.66e+07
VHH antibody in which arginine in position 50 of SEQ ID NO: 1 was substituted (SEQ ID NO: 4) (VHH, Text says asparagine at IMGT 50; Expressed in E. coli; also called R50L mutant) VHH: QVQLVESGGGLVQAGDSLRLSCAASGRTFSGYAMGWFRQAPGKELEFVARINWSGTLTYYADSVKGRFTGSRDNAKNTVYLQMNSLKPEDTAVYYCAQRGDSGSNYDPSGYSYWGQGTQVTVSS | 157 | 0.303 | 1.93e+06
VHH antibody in which glycine in position 36, arginine in position 50, glycine in position 78, and serine in position 116 of SEQ ID NO: 1 were substituted (SEQ … (VHH, Text says asparagine at IMGT 36; also called G36D/R50L/G78A/S116R mutant) VHH: QVQLVESGGGLVQAGDSLRLSCAASGRTFSDYAMGWFRQAPGKELEFVARINWSGTLTYYADSVKGRFTASRDNAKNTVYLQMNSLKPEDTAVYYCAQRGDSGSNYDPSGYRYWGQGTQVTVSS | 380 | 0.355 | 933000
VHH antibody in which glycine in position 78 of SEQ ID NO: 1 was substituted with alanine (SEQ ID NO: 5) (VHH, Expressed in E. coli; also called G78A mutant) VHH: QVQLVESGGGLVQAGDSLRLSCAASGRTFSGYAMGWFRQAPGKEREFVARINWSGTLTYYADSVKGRFTASRDNAKNTVYLQMNSLKPEDTAVYYCAQRGDSGSNYDPSGYSYWGQGTQVTVSS | 13200 | 0.806 | 61200
VHH antibody in which glycine in position 36 of SEQ ID NO: 1 was substituted (SEQ ID NO: 3) (VHH, Text says asparagine at IMGT 36; Expressed in E. coli; also called G36D mutant) VHH: QVQLVESGGGLVQAGDSLRLSCAASGRTFSDYAMGWFRQAPGKEREFVARINWSGTLTYYADSVKGRFTGSRDNAKNTVYLQMNSLKPEDTAVYYCAQRGDSGSNYDPSGYSYWGQGTQVTVSS | 61.4 | 0.125 | 2.04e+06
VHH antibody in which glycine in position 36, arginine in position 50, and serine in position 116 of SEQ ID NO: 1 were substituted (SEQ ID NO: 9) (VHH, Text says asparagine at IMGT 36; also called G36D/R50L/S116R mutant) VHH: QVQLVESGGGLVQAGDSLRLSCAASGRTFSDYAMGWFRQAPGKELEFVARINWSGTLTYYADSVKGRFTGSRDNAKNTVYLQMNSLKPEDTAVYYCAQRGDSGSNYDPSGYRYWGQGTQVTVSS | 77.9 | 0.0879 | 1.13e+06
VHH antibody in which glycine in position 36 and serine in position 116 of SEQ ID NO: 1 were substituted (SEQ ID NO: 7) (VHH, Text says asparagine at IMGT 36; also called G36D/S116R mutant) VHH: QVQLVESGGGLVQAGDSLRLSCAASGRTFSDYAMGWFRQAPGKEREFVARINWSGTLTYYADSVKGRFTGSRDNAKNTVYLQMNSLKPEDTAVYYCAQRGDSGSNYDPSGYRYWGQGTQVTVSS | 44.7 | 0.0643 | 1.44e+06
